The source of these data is patent publication US20190194683A1 (WISCONSIN ALUMNI RESEARCH FOUNDATION, published 2019).

In assay [1] the target is T1, α-SNAPRhg1LC (low copy Rhg1 resistance-type α-SNAP, Glyma.18G022500 Peking) (Glycine max (soybean)).
T1 construct: Recombinant protein, His-SUMO tag cleaved off; also called low-copy (LC) Rhg1 α-SNAP
T1 chain: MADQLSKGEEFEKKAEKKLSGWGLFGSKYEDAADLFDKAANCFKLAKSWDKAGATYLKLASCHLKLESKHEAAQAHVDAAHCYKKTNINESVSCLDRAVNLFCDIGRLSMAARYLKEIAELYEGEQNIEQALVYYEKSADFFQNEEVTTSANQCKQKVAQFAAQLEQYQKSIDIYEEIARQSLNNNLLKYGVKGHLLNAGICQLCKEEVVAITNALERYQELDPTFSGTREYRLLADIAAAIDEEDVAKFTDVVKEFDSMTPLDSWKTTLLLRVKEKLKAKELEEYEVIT
Kind of assay: in vitro binding, densitometry of silver-stained SDS-PAGE across three independent experiments; reference NSFCh07 on the same α-SNAP. The text has this:
(§1) All Rhg1-containing HG type test and NAM lines contained NSFRAN07, and α-SNAPRhg1HC and α-SNAPRhg1LC are polymorphic at C-terminal residues that bind and stimulate NSF. Therefore, the impact of NSFRAN07 polymorphisms on binding to both Rhg1 resistance-type α-SNAPs and α-SNAPRhg1WT was investigated. Recombinant NSFRAN07, NSFCh07 and Rhg1 α-SNAP proteins were produced for in vitro binding studies as previously described in (Barnard et al., 1997, J Cell Biol 139, 875-883; (Bayless et al. 2016, Proc. Natl. Acad. Sci. USA 113, E7375-E7382). NSFRAN07 and NSFCh07 binding was quantified using ImageJ densitometry across three independent experiments (FIG. 3D). NSFCh07 binding to α-SNAPRhg1HC and α-SNAPRhg1LC was reduced compared to α-SNAPRhg1WT (FIG. 3C). In contrast, NSFRAN07 binding to α-SNAPRhg1HC or α-SNAPRhg1LC was similar to α-SNAPRhg1WT binding, and was increased ˜30% relative to NSFCh07.
(§2) In vitro NSF binding assays were performed essentially as described in Barnard et. al. (1997) J Cell Biol 139(4): 875-883; and Bayless et al. (2016), Proc Natl Acad Sci USA 113(47): E7375-E7382; Briefly, 20 μg of each respective recombinant α-SNAP protein was added to the bottom of a 1.5-mL polypropylene tube and incubated at 25° C. for 20 min. […] The percentage of NSF bound by α-SNAP was then calculated using densitometric analysis with ImageJ.

Assay [2] deals with T2, α-SNAPRhg1HC (high copy Rhg1 resistance-type α-SNAP, Glyma.18G022500 Fayette) (Glycine max (soybean)).
T2 construct: Recombinant protein, His-SUMO tag cleaved off; also called high copy (HC) Rhg1 α-SNAP
T2 chain: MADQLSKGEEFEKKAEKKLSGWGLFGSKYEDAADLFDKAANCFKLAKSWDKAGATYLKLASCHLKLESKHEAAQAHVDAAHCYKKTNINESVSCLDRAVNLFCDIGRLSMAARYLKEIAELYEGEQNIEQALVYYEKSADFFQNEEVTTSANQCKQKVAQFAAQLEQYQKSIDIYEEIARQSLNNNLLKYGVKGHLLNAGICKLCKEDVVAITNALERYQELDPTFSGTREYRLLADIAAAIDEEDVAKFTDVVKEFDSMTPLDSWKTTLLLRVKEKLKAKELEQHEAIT
The assay is described as above.
Excerpt: as §1, §2

Assay [3] addresses T3, α-SNAPRhg1WT1-279 (WT α-SNAP lacking the final 10 C-terminal residues) (Glycine max (soybean)).
T3 construct: also called α-SNAP lacking the C-terminus
T3 chain: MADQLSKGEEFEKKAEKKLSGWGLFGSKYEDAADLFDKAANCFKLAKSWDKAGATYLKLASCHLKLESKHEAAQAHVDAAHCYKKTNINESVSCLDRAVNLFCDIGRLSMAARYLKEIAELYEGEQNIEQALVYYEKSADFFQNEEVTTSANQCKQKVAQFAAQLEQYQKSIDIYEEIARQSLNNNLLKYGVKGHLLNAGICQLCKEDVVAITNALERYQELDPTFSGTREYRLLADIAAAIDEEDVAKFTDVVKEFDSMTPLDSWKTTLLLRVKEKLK
Kind of assay: in vitro binding of recombinant NSF to tube-adsorbed α-SNAP, silver-stained SDS-PAGE. On the procedure:
To verify that NSFRAN07/α-SNAP binding is dependent upon NSF-binding patches at the α-SNAP C-terminus, NSFRAN07 binding to an otherwise WT α-SNAP lacking the final 10 C-terminal residues (α-SNAPRhg1WT₁₋₂₇₉) was determined. Binding of NSFCh07WT or NSFRAN07 binding with α-SNAP Rhg1WT₁₋₂₇₉ was disrupted, similar to the no α-SNAP binding controls (FIG. 10C).
(§3) In vitro NSF binding assays were performed essentially as described in Barnard et. al. (1997) J Cell Biol 139(4): 875-883; and Bayless et al. (2016), Proc Natl Acad Sci USA 113(47): E7375-E7382; Briefly, 20 μg of each respective recombinant α-SNAP protein was added to the bottom of a 1.5-mL polypropylene tube and incubated at 25° C. for 20 min. Unbound α-SNAP proteins were then washed by adding α-SNAP wash buffer [25 mM Tris, pH 7.4, 50 mM KCl, 1 mM DTT, 0.4 mg/mL bovine serum albumin (BSA)]. After removal of wash buffer, 20 μg of recombinant NSF (1 μg/μL in NSF binding buffer), was then immediately added and incubated on ice for 10 min. The solution was then removed, and samples were immediately washed 2× with NBB to remove any unbound NSF. Samples were then boiled in 1×SDS loading buffer and separated on a 10% Bis-Tris SDS-PAGE, and silver-stained using the ProteoSilver Kit (Sigma-Aldrich), according to the manufacturer directions. The percentage of NSF bound by α-SNAP was then calculated using densitometric analysis with ImageJ.

Assay [4] has as its target T4, α-SNAPRhg1WT (wild-type α-SNAP encoded by Glyma.18G022500, Williams 82) (Glycine max (soybean)).
T4 construct: also called WT α-SNAP; wild-type (WT) Rhg1 α-SNAP
T4 chain: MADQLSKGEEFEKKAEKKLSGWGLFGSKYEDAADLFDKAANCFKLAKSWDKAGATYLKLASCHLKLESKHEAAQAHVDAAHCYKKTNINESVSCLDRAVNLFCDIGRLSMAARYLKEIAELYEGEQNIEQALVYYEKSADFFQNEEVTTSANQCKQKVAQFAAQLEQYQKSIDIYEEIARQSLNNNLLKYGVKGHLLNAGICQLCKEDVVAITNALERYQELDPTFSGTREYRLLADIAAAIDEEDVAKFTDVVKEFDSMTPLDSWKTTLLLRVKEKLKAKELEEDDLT
In words: in vitro binding: α-SNAP adsorbed to tube, recombinant NSF added, bound NSF on silver-stained SDS-PAGE, ImageJ densitometry.
Excerpt: as §1, §3

The target in assay [5] is T5, α-SNAPRhg1LC1-279 (α-SNAPRhg1LC lacking the final 10 C-terminal residues) (Glycine max (soybean)).
T5 construct: both say that the final 10 C-terminal residues are missing; also called α-SNAPRhg1LC1-280
T5 chain: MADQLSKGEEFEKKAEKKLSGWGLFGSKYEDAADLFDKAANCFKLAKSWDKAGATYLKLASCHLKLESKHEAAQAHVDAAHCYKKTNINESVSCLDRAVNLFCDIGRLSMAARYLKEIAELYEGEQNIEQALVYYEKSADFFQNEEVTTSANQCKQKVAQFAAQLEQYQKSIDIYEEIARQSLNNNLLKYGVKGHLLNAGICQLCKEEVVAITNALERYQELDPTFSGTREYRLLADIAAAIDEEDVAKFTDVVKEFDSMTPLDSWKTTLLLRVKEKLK
In words: in vitro binding.

The target in assay [6] is T1, α-SNAPRhg1LC (low copy Rhg1 …). Kind of assay: in vitro binding: α-SNAP adsorbed to tube, recombinant NSF added, bound NSF on silver-stained SDS-PAGE, ImageJ densitometry.
Excerpt: as §1, §3

Assay [7] deals with T2, α-SNAPRhg1HC (high copy Rhg1 …). The assay is described as above.
Excerpt: as §1, §3

B1: NSFRAN07 (Rhg1-associated NSF from chromosome 07, allele of Glyma.07G195900) (enzyme)
chain: MASQFGLSSSSSSASSMRVTYTPANDLALTNLAFCSPSDLRNFAVPGHNNLYLAAVADSFVLSLSAHDTIGSGQIALNAVQRRCAKVSSGDSVQVSRFVPPEDFNLALLTLELEFFVKKGSKSEQIDAVLLAKQLRKRFMNQVMTVGQKVLFEYHGNNYSFTVSNAAVEGQEKSNSLERGIISDDTYIVFETSRDSGIKIVNQREGATSNIFKQKEFNLQSLGIGGLSAEFADIFRRAFASRVFPPHVTSKLGIKHVKGMLLYGPPGTGKTLMARQIGKILNGKEPKIVNGPEVLSKFVGETEKNVRDLFADAEQDQRTRGDESDLHVIIFDEIDAICKSRGSTRDGTGVHDSIVNQLLTKIDGVESLNNVLLIGMTNRKDMLDEALLRPGRLEVQVEISLPDENGRLQILQIHTNKMKENSFLAADVNLQELAARTKNYSGAELEGVVKSAVSYALNRQLSLEDLTKPVEEENIKVTMDDFLNALHEVTSAFGASTDDLERCRLHGMVECGDRHKHIYQRAMLLVEQVKVSKGSPLVTCLLEGSRGSGKTALSATVGIDSDFPYVKIVSAESMIGLHESTKCAQIIKVFEDAYKSPLSVIILDDIERLLEYVPIGPRFSNLISQTLLVLLKRLPPKGKKLMVIGTTSELDFLESIGFCDTFSVTYHIPTLNTTDAKKVLEQLNVFTDEDIDSAAEALNDMPIRKLYMLIEMAAQGEHGGSAEAIFSGKEKISIAHFYDCLQDVVRL
notes: Recombinant protein from E. coli, ORF cloned from Forrest (Rhg1LC) cDNA; Differs from NSFCh07 by R4Q, N21Y, S25N, insertion 116F and M181I; also called Glyma.07G195900 RAN07
As for B1, the “increase of binding relative to NSFCh07” value in assay [1] and in assay [2] was approximately 30% in each case. The binding result in assay [3] was “no binding (tested: 20 µg NSF (1 µg/µL))”; in assay [4], “binds”; in assay [5], “no binding”.

B2: NSFCh07 (wild-type NSF encoded by Glyma.07G195900, soybean reference genome Williams 82) (enzyme)
chain: MASRFGLSSSSSSASSMRVTNTPASDLALTNLAFCSPSDLRNFAVPGHNNLYLAAVADSFVLSLSAHDTIGSGQIALNAVQRRCAKVSSGDSVQVSRFVPPEDFNLALLTLELEFVKKGSKSEQIDAVLLAKQLRKRFMNQVMTVGQKVLFEYHGNNYSFTVSNAAVEGQEKSNSLERGMISDDTYIVFETSRDSGIKIVNQREGATSNIFKQKEFNLQSLGIGGLSAEFADIFRRAFASRVFPPHVTSKLGIKHVKGMLLYGPPGTGKTLMARQIGKILNGKEPKIVNGPEVLSKFVGETEKNVRDLFADAEQDQRTRGDESDLHVIIFDEIDAICKSRGSTRDGTGVHDSIVNQLLTKIDGVESLNNVLLIGMTNRKDMLDEALLRPGRLEVQVEISLPDENGRLQILQIHTNKMKENSFLAADVNLQELAARTKNYSGAELEGVVKSAVSYALNRQLSLEDLTKPVEEENIKVTMDDFLNALHEVTSAFGASTDDLERCRLHGMVECGDRHKHIYQRAMLLVEQVKVSKGSPLVTCLLEGSRGSGKTALSATVGIDSDFPYVKIVSAESMIGLHESTKCAQIIKVFEDAYKSPLSVIILDDIERLLEYVPIGPRFSNLISQTLLVLLKRLPPKGKKLMVIGTTSELDFLESIGFCDTFSVTYHIPTLNTTDAKKVLEQLNVFTDEDIDSAAEALNDMPIRKLYMLIEMAAQGEHGGSAEAIFSGKEKISIAHFYDCLQDVVRL
notes: Recombinant protein from E. coli; also called NSFCh07WT; NSF-WT
Consider B2, for which the binding result is “no binding (tested: 20 µg NSF (1 µg/µL))” in assay [3]; “binds” in assay [4]; “binds” in assay [6]; “binds” in assay [7]; “no binding” in assay [5].
